This note sets out measurements from PMC7954794 (2021).

Sequences and labels used below:
B1: S. cerevisiae Abp1 (full length; SH3 domain 535-592 mutated) / Hua2 (parent complex)
chain 1: MALEPIDYTTHSREIDAEYLKIVRGSDPDTTWLIISPNAKKEYEPESTGSSFHDFLQLFDETKVQYGLARVSPPGSDVEKIIIIGWCPDSAPLKTRASFAANFAAVANNLFKGYHVQVTARDEDDLDENELLMKISNAAGARYSIQTSSKQQGKASTPPVKKSFTPSKSPAPVSKKEPVKTPSPAPAAKISSRVNDNNDDDDWNEPELKERDFDQAPLKPNQSSYKPIGKIDLQKVIAEEKAKEDPRLVQKPTAAGSKIDPSSDIANLKNESKLKRDSEFNSFLGTTKPPSMTESSLKNDDDKVIKGFRNEKSPAQLWAERKAKQNSGNAETKAEAPKPEVPEDEPEGEPDVKDLKSKFEGLAASEKEEEEMENKFAPPPKKSEPTIISPKPFSKPQEPVKAEEAEQPKTDYKKIGNPLPGMHIEADNEEEPEENDDDWDDDEDEAAQPPLPSRNVASGAPVQKEEPEQEEIAPSLPSRNSIPAPKQEEAPEQAPEEEIEEEAEEAAPQLPSRSSAAPPPPPRRATPEKKPKENPWATAEYDYDAAEDNELTFVENDKIINIEFVDDDWWLGELEKDGSKGLFPSNYVSLGN
chain 2: MQQTKFGKMYLDHDSVVEYSEDEIVEADRITLGYKKRLSMIENQMRHLLEDFSLDVQQIEPILADLQKYYDAFLQLLQKRNKSLQCKRSTHQPVPSPMNSQTSTNAKVNLSGKLMKFQLNSVQKFDEENILRILQNKIEFEHYFQIDKGKKQKVLLLAVYQCLNGPTRLHKVLNIEGIIHNNSIRTILGKQVSSSKWTVFLYDVKLVLLAHRQDVPNLETSKMIVRYGDLFPCALYFKDHTAY

In the test the parent is B1. In words: DHFR protein-fragment complementation in yeast (Abp1-DHFR F[1,2] x partner-DHFR F[3]), deep mutational scanning, second methotrexate selection vs reference; S. cerevisiae, DHFR-PCA selection in liquid with methotrexate at 30 C, two 72 h selections (the score uses the second); reference = the pre-selection culture.
On to chain 1 MALEPIDYTTHSREIDAEYLKIVRGSDPDTTWLIISPNAKKEYEPESTGSSFHDFLQLFDETKVQYGLARVSPPGSDVEKIIIIGWCPDSAPLKTRASFAANFAAVANNLFKGYHVQVTARDEDDLDENELLMKISNAAGARYSIQTSSKQQGKASTPPVKKSFTPSKSPAPVSKKEPVKTPSPAPAAKISSRVNDNNDDDDWNEPELKERDFDQAPLKPNQSSYKPIGKIDLQKVIAEEKAKEDPRLVQKPTAAGSKIDPSSDIANLKNESKLKRDSEFNSFLGTTKPPSMTESSLKNDDDKVIKGFRNEKSPAQLWAERKAKQNSGNAETKAEAPKPEVPEDEPEGEPDVKDLKSKFEGLAASEKEEEEMENKFAPPPKKSEPTIISPKPFSKPQEPVKAEEAEQPKTDYKKIGNPLPGMHIEADNEEEPEENDDDWDDDEDEAAQPPLPSRNVASGAPVQKEEPEQEEIAPSLPSRNSIPAPKQEEAPEQAPEEEIEEEAEEAAPQLPSRSSAAPPPPPRRATPEKKPKENPWATAEYDYDALEDNELTFVENDKIINIEFVDDDWWLGELEKDGSKGLFPSNYVSLGN [chain 1 A546L], for which the screen value was -0.283 DMS score: mean over two replicates of log2(f_test/f_ref + 0.5)/ln 2, minus the synonymous-codon median (not a log2 …. For chain 1 MALEPIDYTTHSREIDAEYLKIVRGSDPDTTWLIISPNAKKEYEPESTGSSFHDFLQLFDETKVQYGLARVSPPGSDVEKIIIIGWCPDSAPLKTRASFAANFAAVANNLFKGYHVQVTARDEDDLDENELLMKISNAAGARYSIQTSSKQQGKASTPPVKKSFTPSKSPAPVSKKEPVKTPSPAPAAKISSRVNDNNDDDDWNEPELKERDFDQAPLKPNQSSYKPIGKIDLQKVIAEEKAKEDPRLVQKPTAAGSKIDPSSDIANLKNESKLKRDSEFNSFLGTTKPPSMTESSLKNDDDKVIKGFRNEKSPAQLWAERKAKQNSGNAETKAEAPKPEVPEDEPEGEPDVKDLKSKFEGLAASEKEEEEMENKFAPPPKKSEPTIISPKPFSKPQEPVKAEEAEQPKTDYKKIGNPLPGMHIEADNEEEPEENDDDWDDDEDEAAQPPLPSRNVASGAPVQKEEPEQEEIAPSLPSRNSIPAPKQEEAPEQAPEEEIEEEAEEAAPQLPSRSSAAPPPPPRRATPEKKPKENPWATAEHDYDAAEDNELTFVENDKIINIEFVDDDWWLGELEKDGSKGLFPSNYVSLGN [chain 1 Y541H], the screen value was -1.01 DMS score: mean over two replicates of log2(f_test/f_ref + 0.5)/ln 2, minus the synonymous-codon median (not a log2 …. As to chain 1 MALEPIDYTTHSREIDAEYLKIVRGSDPDTTWLIISPNAKKEYEPESTGSSFHDFLQLFDETKVQYGLARVSPPGSDVEKIIIIGWCPDSAPLKTRASFAANFAAVANNLFKGYHVQVTARDEDDLDENELLMKISNAAGARYSIQTSSKQQGKASTPPVKKSFTPSKSPAPVSKKEPVKTPSPAPAAKISSRVNDNNDDDDWNEPELKERDFDQAPLKPNQSSYKPIGKIDLQKVIAEEKAKEDPRLVQKPTAAGSKIDPSSDIANLKNESKLKRDSEFNSFLGTTKPPSMTESSLKNDDDKVIKGFRNEKSPAQLWAERKAKQNSGNAETKAEAPKPEVPEDEPEGEPDVKDLKSKFEGLAASEKEEEEMENKFAPPPKKSEPTIISPKPFSKPQEPVKAEEAEQPKTDYKKIGNPLPGMHIEADNEEEPEENDDDWDDDEDEAAQPPLPSRNVASGAPVQKEEPEQEEIAPSLPSRNSIPAPKQEEAPEQAPEEEIEEEAEEAAPQLPSRSSAAPPPPPRRATPEKKPKENPWATAEYDYDAAEDNELTFVENDKIINIEFVQDDWWLGELEKDGSKGLFPSNYVSLGN [chain 1 D566Q], the screen value was -2.94 DMS score: mean over two replicates of log2(f_test/f_ref + 0.5)/ln 2, minus the synonymous-codon median (not a log2 ….

chain 1 MALEPIDYTTHSREIDAEYLKIVRGSDPDTTWLIISPNAKKEYEPESTGSSFHDFLQLFDETKVQYGLARVSPPGSDVEKIIIIGWCPDSAPLKTRASFAANFAAVANNLFKGYHVQVTARDEDDLDENELLMKISNAAGARYSIQTSSKQQGKASTPPVKKSFTPSKSPAPVSKKEPVKTPSPAPAAKISSRVNDNNDDDDWNEPELKERDFDQAPLKPNQSSYKPIGKIDLQKVIAEEKAKEDPRLVQKPTAAGSKIDPSSDIANLKNESKLKRDSEFNSFLGTTKPPSMTESSLKNDDDKVIKGFRNEKSPAQLWAERKAKQNSGNAETKAEAPKPEVPEDEPEGEPDVKDLKSKFEGLAASEKEEEEMENKFAPPPKKSEPTIISPKPFSKPQEPVKAEEAEQPKTDYKKIGNPLPGMHIEADNEEEPEENDDDWDDDEDEAAQPPLPSRNVASGAPVQKEEPEQEEIAPSLPSRNSIPAPKQEEAPEQAPEEEIEEEAEEAAPQLPSRSSAAPPPPPRRATPEKKPKENPWATAEYDYDAAEDNELTFVENDKIINIEFVDDDWWRGELEKDGSKGLFPSNYVSLGN [chain 1 L571R]: the screen value is -1.06 DMS score: mean over two replicates of log2(f_test/f_ref + 0.5)/ln 2, minus the synonymous-codon median (not a log2 …. Regarding chain 1 MALEPIDYTTHSREIDAEYLKIVRGSDPDTTWLIISPNAKKEYEPESTGSSFHDFLQLFDETKVQYGLARVSPPGSDVEKIIIIGWCPDSAPLKTRASFAANFAAVANNLFKGYHVQVTARDEDDLDENELLMKISNAAGARYSIQTSSKQQGKASTPPVKKSFTPSKSPAPVSKKEPVKTPSPAPAAKISSRVNDNNDDDDWNEPELKERDFDQAPLKPNQSSYKPIGKIDLQKVIAEEKAKEDPRLVQKPTAAGSKIDPSSDIANLKNESKLKRDSEFNSFLGTTKPPSMTESSLKNDDDKVIKGFRNEKSPAQLWAERKAKQNSGNAETKAEAPKPEVPEDEPEGEPDVKDLKSKFEGLAASEKEEEEMENKFAPPPKKSEPTIISPKPFSKPQEPVKAEEAEQPKTDYKKIGNPLPGMHIEADNEEEPEENDDDWDDDEDEAAQPPLPSRNVASGAPVQKEEPEQEEIAPSLPSRNSIPAPKQEEAPEQAPEEEIEEEAEEAAPQLPSRSSAAPPPPPRRATPEKKPKENPWATAEYDYDAAEDNELTFVNNDKIINIEFVDDDWWLGELEKDGSKGLFPSNYVSLGN [chain 1 E555N], the screen value was -0.276 DMS score: mean over two replicates of log2(f_test/f_ref + 0.5)/ln 2, minus the synonymous-codon median (not a log2 ….
